From US20030148958A1 (PROCTER AND GAMBLE, published 2003)
Ends that are not written are not given here.

T1: corticotropin releasing factor 2 receptor
T1 sequence (Q13324 whole entry, species assumed, looked up): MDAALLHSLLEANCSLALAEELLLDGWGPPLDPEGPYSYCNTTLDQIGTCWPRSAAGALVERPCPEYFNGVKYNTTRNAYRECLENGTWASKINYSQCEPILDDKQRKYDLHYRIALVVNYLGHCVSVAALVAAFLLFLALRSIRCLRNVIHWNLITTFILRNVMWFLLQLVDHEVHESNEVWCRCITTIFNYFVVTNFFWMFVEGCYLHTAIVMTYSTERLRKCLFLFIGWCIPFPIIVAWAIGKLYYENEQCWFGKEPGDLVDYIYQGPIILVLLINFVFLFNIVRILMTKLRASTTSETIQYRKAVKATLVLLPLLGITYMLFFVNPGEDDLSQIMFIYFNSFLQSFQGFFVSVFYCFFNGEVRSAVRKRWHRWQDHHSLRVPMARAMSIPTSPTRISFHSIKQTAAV


Key:
[1] = biological target: T1, corticotropin releasing factor 2 …; assay: cell-based or functional assay
[2] = biological target: corticotropin releasing factor 1 receptor; assay: cell-based or functional assay
Throughout, for CRF1R Emax: reference of the scale not given here.
Throughout, for CRF2R Emax: reference of the scale not given here.

Row | CRF2R EC50 [1] [nM] | CRF2R Emax [1] [%] | CRF1R EC50 [2] [nM] | CRF1R Emax [2] [%] | Binder
1 | 79 | 97 | > 100 | 3 | IVLSLDVPIGLLQILLEQTKADAAREQATTNARILARV-NH2 [SEQ ID NO 108]
2 | 100 | 8.25 | 100 | 5.55 | SQEPPISLDLPLQLLREVLEMTKADQLAQQAHSNRKLLDIA-NH2 [SEQ ID NO 95]
3 | 100 | 26.4 | 100 | 4.8 | IVLSLDVPIGLLQILLEQTKANAAREQATTVARILARV-NH2 [SEQ ID NO 116]
4 | 13.6 | 98 | > 100 | 7 | IVLSLDVPIGLLQILLEQEKQRAAREQATTNARILARV-NH2 [SEQ ID NO 115]
5 | 11.8 |  | 100 |  | IVLSLDVPIGLLQILLEQAKARAAREQATTNARILARV-NH2 [SEQ ID NO 109]
6 | 100 | 34 | 100 | 10 | IVLSLDVPIGLLQILLEQARARAAREQATTQARILARV-NH2 [SEQ ID NO 9]
7 | 100 | 9.85 | 100 | 6.25 | SQEPPISLDLPIQLLREVLEMTKADQLAQQAHSNRKLLDIA-NH2 [SEQ ID NO 100]
8 | 100 | 15.8 | 100 | 4.6 | SQEPPISLDLPTELLREVLEMTKADQLAQQAHSNRKIIDIA-NH2 [SEQ ID NO 92]
9 | 10.9 | 99 | > 100 | 9 | IVLSLDVPIGLLQILLEQERQRAAREQATTNARILARV-NH2 [SEQ ID NO 111]
10 | 100 | 6.15 | 100 | 7.3 | SQEPPISLDLPIHLLREVLEMTKADQLAQQAHSNRKLLDIA-NH2 [SEQ ID NO 94]
11 | 100 | 7.1 | 100 | 4 | SQEPPISLDLPFQLLREVLEMTKADQLAQQAHSNRKLLDIA-NH2 [SEQ ID NO 91]
12 | 100 | 6.1 | 100 | 4.8 | SQEPPISLDLPTYLLREVLEMTKADQLAQQAHSNRKLLDIA-NH2 [SEQ ID NO 106]
13 | 100 | 5.5 | 100 | 4 | SQEPPISLDLPTGLLREVLEMTKADQLAQQAHSNRKLLDIA-NH2 [SEQ ID NO 98]
14 | 100 | 4.85 | 100 | 5.75 | SQEPPISLDLPFGLLREVLEMTKADQLAQQAHSNRKLLDIA-NH2 [SEQ ID NO 103]
15 | 100 | 7.6 | 100 | 4.25 | SQEPPISLDLPFELLREVLEMTKADQLAQQAHSNRKLLDIA-NH2 [SEQ ID NO 97]
16 | 100 | 6.95 | 100 | 7.35 | SQEPPISLDLPLYLLREVLEMTKADQLAQQAHSNRKLLDIA-NH2 [SEQ ID NO 101]
17 | 11.3 | 98 | > 100 | 4 | IVLSLDVPIGLLQILLEQERAEAAREQATTNARILARV-NH2 [SEQ ID NO 113]
18 | 9.72 | 91 | 928 | 73 | ZGPPISIDLPFQLLRKMIEIEKQEKEKQQATNNRLLLATV (C-terminal amide) [SEQ ID NO 12]
19 | 100 | 9.15 | 100 | 5.2 | SQEPPISLDLPTQLLREVLEMTKADQLAQQAHSNRKLLDIA-NH2 [SEQ ID NO 105]
20 | 11 | 100 | > 100 | 9 | IVLSLDVPIGLLQILLEQAKQRAAREQATTNARILARV-NH2 [SEQ ID NO 110]
21 | 100 | 4.35 | 100 | 4.35 | SQEPPISLDLPTHLLREVLEMTKADQLAQQAHSNRKLLDIA-NH2 [SEQ ID NO 99]
22 | 100 | 4.5 | 100 | 11.1 | SQEPPISLDLPFHLLREVLEMTKADQLAQQAHSNRKLLDIA-NH2 [SEQ ID NO 104]
23 | 3.42 | 100 | > 100 | 6 | IVLSLDVPIGLLQILLEQARQRAAREQATTNARILARV-NH2 [SEQ ID NO 114]
24 | 100 | 12.5 | 100 | 16.3 | SQEPPISLDLPFYLLREVLEMTKADQLAQQAHSNRKLLDIA-NH2 [SEQ ID NO 96]
25 | 100 | 19 | 100 | 4 | SQEIVLSLDVPIGLLREVLEMTKADQLAQQAHSNRKLLDIA-NH2 [SEQ ID NO 7]
26 | 100 | 6.4 | 100 | 5 | SQEPPISLDLPIGLLREVLEMTKADQLAQQAHSNRKLLDIA-NH2 [SEQ ID NO 93]
27 | 100 | 13.5 | 100 | 7.8 | SQEPPISLDLPLHLLREVLEMTKADQLAQQAHSNRKLLDIA-NH2 [SEQ ID NO 102]
28 | 12.3 | 100 | > 100 | 10 | IVLSLDVPIGLLQILLEQAKAEAAREQATTNARILARV-NH2 [SEQ ID NO 112]
